Source: PMC10671532, “Expanded Substrate Specificity in D-Amino Acid Transaminases: A Case Study of Transaminase from Blastococcus saxobsidens” (International Journal of Molecular Sciences, 2023)

Columns and labels:
[1] = molecular target: T1, BlasaTA (transaminase from Blastococcus saxobsidens) (Blastococcus saxobsidens, UniProt H6RQF3); assay: half-reaction with PLP form, absorbance at […] nm, kobs fit; format: biochemical; details: pH 8.0, 50 mM K-phosphate, 30 °C, single half-reaction, read-out: 50 mM K-Phosphate Buffer, pH 8.0 / KD
T1 construct: gene BLASA_4517; codon-optimized gene in modified pET-21d; N-terminal His6 tag with TEV site kept for kinetics, cut for crystals; E. coli Rosetta (DE3) pLysS; homodimer ~60 kDa

[2] = molecular target: Recombinant D-amino acid transaminase from Blastococcus saxobsidens (BlasaTA), (His)6-tagged (Blastococcus saxobsidens (strain DD2)); assay: SEC; gel filtration of the purified enzyme; molecular weight approximately 60 kDa against 29.1 kDa for the subunit; conditions not shown
purified protein [3] = substrate: C[C@@H](N)C(=O)O; assay: purified protein; details: co-substrate 5 mM α-ketoglutarate, pH 8.0, 50 mM K-phosphate, 40 °C
purified protein [4] = substrate: CC(C)CC(=O)C(=O)O; assay: purified protein; format: biochemical, Blastococcus saxobsidens; details: co-substrate 25 mM D-alanine, pH 8.0, 50 mM K-phosphate, 40 °C
purified protein [5] = substrate: CC(=O)C(=O)O; assay: purified protein; format: biochemical, Blastococcus saxobsidens; details: co-substrate 15 mM D-glutamate, pH 8.0, 50 mM K-phosphate, 40 °C
purified protein [6] = substrate: C[C@@H](N)c1ccccc1; assay: purified protein; format: biochemical, Blastococcus saxobsidens; details: co-substrate 2 mM α-ketoglutarate, pH 9.0, 50 mM CHES, 30 °C
purified protein [7] = substrate: O=C(O)CCC(=O)C(=O)O; assay: purified protein; format: biochemical, Blastococcus saxobsidens; details: co-substrate 25 mM D-alanine, pH 8.0, 50 mM K-phosphate, 40 °C
purified protein [8] = substrate: N[C@H](CCC(=O)O)C(=O)O; assay: purified protein; format: biochemical, Blastococcus saxobsidens; details: co-substrate 15 mM pyruvate, pH 8.0, 50 mM K-phosphate, 40 °C

Molecule `C[C@@H](N)c1ccccc1` [(R)-1-Phenylethyl amine] has a Kd [1] of 19 ± 2 mM.

For `N[C@H](Cc1ccccc1)C(=O)O` [D-Phenylalanine], the Kd [1] was 32 ± 2 mM.

For “Recombinant D-amino acid transaminase from Blastococcus saxobsidens (BlasaTA), (His)6-tagged (enzyme)”, the stoichiometry N [2] was 2.

B1: BlasaTA (transaminase from Blastococcus saxobsidens) (Blastococcus saxobsidens DD2) (protein)
chain: MNEQRSVAVWRDGAAVTVPAHQPVVTAFDLGLGRGDGIFESVAVVAGRTPHLAAHLTRLTRSAALLGLPAPGDQAWMEMVAAVLADWPAALEGVCRLFLTRGLGDGTPPTALALLAPVPADTLRQRAEGISVATLGLGVPADFRAGAPWLLGGAKTLSYAVNMAAQRHAHDLGADDVVFTSLEGRLLEGPTSTVVWAAGGTLHTPPVETGILPGTTQARLFTAAAADGWPTSVTPGTVDDLHAADAVWLLSGVRGAAVVHTVDGVRRGDGDLSRRVRELLAR
notes: codon-optimized gene in modified pET-21d; N-terminal His6 tag with TEV site kept for kinetics, cut for crystals; E. coli Rosetta (DE3) pLysS; homodimer ~60 kDa
B1 gave a Km (purified protein [3]) of 2000 ± 300 µM, a kcat (purified protein [3]) of 8.1 s⁻¹ and a kcat/Km (purified protein [3]) of 4000 M⁻¹ s⁻¹. The Km (purified protein [4]) was 45000 ± 2000 µM, the kcat (purified protein [4]) was 0.19 ± 0.004 s⁻¹ and the kcat/Km (purified protein [4]) was 4.2 ± 0.3 M⁻¹ s⁻¹. The Km (purified protein [5]) was 1600 ± 100 µM, the kcat (purified protein [5]) was 7.5 ± 0.3 s⁻¹ and the kcat/Km (purified protein [5]) was 4700 ± 500 M⁻¹ s⁻¹. It also gave a Km (purified protein [6]) of 6600 ± 400 µM, a kcat (purified protein [6]) of 0.053 ± 0.002 s⁻¹ and a kcat/Km (purified protein [6]) of 8 ± 0.8 M⁻¹ s⁻¹. It also gave a Km (purified protein [7]) of 530 ± 60 µM, a kcat (purified protein [7]) of 8.1 ± 0.3 s⁻¹ and a kcat/Km (purified protein [7]) of 15300 ± 2300 M⁻¹ s⁻¹. For the same molecule, the Km (purified protein [8]) was 400 ± 60 µM, the kcat (purified protein [8]) was 7.5 ± 0.3 s⁻¹ and the kcat/Km (purified protein [8]) was 18800 ± 3600 M⁻¹ s⁻¹.
